In this assay the target is porcine pancreatic elastase (Merck, Germany, Cat. No. 324682) (porcine) (UniProt P00772). The assay can be described thus: cell-based or functional assay.

In US20220251619A1 one finds % active AAT relative to plasma-derived AAT (elastase inhibition, SAPNA hydrolysis and Average % Activity (elastase inhibition, SAPNA hydrolysis data, which are given here for two substances.

Chain of UniProt P00772 (P00772 27-266 limits assumed): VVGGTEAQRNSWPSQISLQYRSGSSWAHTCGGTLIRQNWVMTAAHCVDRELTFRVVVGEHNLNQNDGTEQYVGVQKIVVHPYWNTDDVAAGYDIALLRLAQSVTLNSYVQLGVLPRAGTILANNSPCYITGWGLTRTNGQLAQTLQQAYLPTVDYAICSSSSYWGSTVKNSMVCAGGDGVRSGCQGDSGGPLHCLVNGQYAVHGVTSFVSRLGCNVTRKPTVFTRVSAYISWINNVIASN

On to “remodelled rAAT (rAAT incubated with beta1,4-galactosyltransferase, alpha2,3 sialyltransferase from Pasteurella multocida and alpha2,6 sialyltransferase from Photobacterium damselae, then purified) (from UniProt P01009 25-418)”, for which the % active AAT relative to plasma-derived AAT (elastase inhibition, SAPNA hydrolysis at 410 nm), Assay 1 was found to be 97.1%; the % active AAT relative to plasma-derived AAT (elastase inhibition, SAPNA hydrolysis at 410 nm), Assay 2 stood at 93%; the Average % Activity (elastase inhibition, SAPNA hydrolysis at 410 nm) came out at 95.4%.
The like results for “recombinant alpha-1 antitrypsin produced in CHO-DG44 cells, untreated (from UniProt P01009 25-418)” were, in that order, 90.1%, 88.6% and 89.3%.
